Molecular target: SARS-CoV-2 spike prefusion stabilized ectodomain trimer (SARS-CoV-2) (UniProt P0DTC2)
Experiment: cryo-EM structure

**Q.** 47D11 Fab fragment was tested. Which stoichiometry N (Fab per spike trimer) did it give?
**A.** Its stoichiometry N (Fab per spike trimer) is 2.
